Our source for the ECL signal values is US20120316071A1 (published 2012).

Numbering of substitutions follows the chain as printed. In names and notes the source's numbering stands.

For test [1], the target named is T1, rHuman EGF R/Fc Chimera, CF (R&D Systems Cat#344-ER) (human, UniProt P00533 25-645).
T1 construct: Bought recombinant Fc chimera; also called epidermal growth factor receptor; Fc part of the bought chimera not given
In words: MSD Multispot ECL, antigen spotted on plate, Fab in solution; blank spot of the row 337.

The target of test [2] is T2, rHuman Notch-1/Fc Chimera, CF (R&D Systems Cat#3647-TK) (human, UniProt P46531 19-526).
T2 construct: Bought recombinant Fc chimera; Fc part of the bought chimera not given
The test is described as above.

Test [3] deals with T3, rHuman Erythropoietin R/Fc Chimera, CF (R&D Systems Cat#963-ER) (human, UniProt P19235 25-250).
T3 construct: Bought recombinant Fc chimera; also called EPO R; EPO R/Fc; Fc part of the bought chimera not given
T3 sequence (looked up): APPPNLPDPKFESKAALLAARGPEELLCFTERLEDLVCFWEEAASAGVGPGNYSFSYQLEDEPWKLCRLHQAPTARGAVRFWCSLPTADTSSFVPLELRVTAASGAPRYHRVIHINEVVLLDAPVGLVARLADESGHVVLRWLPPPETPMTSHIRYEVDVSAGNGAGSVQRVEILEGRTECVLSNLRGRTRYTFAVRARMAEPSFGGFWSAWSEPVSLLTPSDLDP
The test is described as above.

In test [4] the target is T4, Recombinant Human DLL4 (R&D Systems Cat#1506-D4/CF) (human, UniProt Q9NR61 27-524).
T4 construct: Bought recombinant protein; also called delta-like protein 4; Delta-like 4
The test is described as above.

Test [5] concerns the target T5, rHuman CD44/Fc Chimera, CF (R&D Systems Cat#3660-CD) (human, UniProt P16070 21-220).
T5 construct: Bought recombinant Fc chimera; Fc part of the bought chimera not given
The description is as above.

Test [6] addresses T6, rHuman P-Cadherin/Fc Chimera, CF (R&D Systems Cat#861-PC) (human, UniProt P22223 108-654).
T6 construct: Bought recombinant Fc chimera; Fc part of the bought chimera not given
Described as above.

Test [7] has as its target T7, rHuman HGF R/c-MET/Fc Chimera, CF (R&D Systems Cat#358-MT/CF) (human, UniProt P08581 25-932).
T7 construct: Bought recombinant Fc chimera; also called HGF R/Fc; hepatocyte growth factor receptor; Fc part of the bought chimera not given
The test is described as above.

Test [8] concerns the target T1, rHuman EGF R/Fc Chimera, CF (R&D …). The experiment in a line: MSD Multispot ECL, antigen spotted on plate, Fab in solution; blank spot of the row 316.
In test [9] the target is T2, rHuman Notch-1/Fc Chimera, CF (R&D …). Described as above.
Test [10] has as its target T3, rHuman Erythropoietin R/Fc Chimera, CF …. Described as above.
Test [11] has as its target T4, Recombinant Human DLL4 (R&D Systems …). The description is as above.
In test [12] the target is T5, rHuman CD44/Fc Chimera, CF (R&D Systems …). The test is described as above.
Test [13] deals with T6, rHuman P-Cadherin/Fc Chimera, CF (R&D …). Described as above.
The target in test [14] is T7, rHuman HGF R/c-MET/Fc Chimera, CF (R&D …). Described as above.
The target of test [15] is T1, rHuman EGF R/Fc Chimera, CF (R&D …). The experiment in a line: MSD Multispot ECL, antigen spotted on plate, Fab in solution; blank spot of the row 351.
The target in test [16] is T2, rHuman Notch-1/Fc Chimera, CF (R&D …). The description is as above.
The target of test [17] is T3, rHuman Erythropoietin R/Fc Chimera, CF …. The test is described as above.
Test [18] addresses T4, Recombinant Human DLL4 (R&D Systems …). The description is as above.
For test [19], the target named is T5, rHuman CD44/Fc Chimera, CF (R&D Systems …). The test is described as above.
The target of test [20] is T6, rHuman P-Cadherin/Fc Chimera, CF (R&D …). Described as above.
The target in test [21] is T7, rHuman HGF R/c-MET/Fc Chimera, CF (R&D …). The description is as above.
Test [22] addresses T1, rHuman EGF R/Fc Chimera, CF (R&D …). In words: MSD Multispot ECL, antigen spotted on plate, Fab in solution; blank spot of the row 297.
For test [23], the target named is T2, rHuman Notch-1/Fc Chimera, CF (R&D …). Described as above.
The target of test [24] is T3, rHuman Erythropoietin R/Fc Chimera, CF …. Described as above.
In test [25] the target is T4, Recombinant Human DLL4 (R&D Systems …). The description is as above.
Test [26] deals with T6, rHuman P-Cadherin/Fc Chimera, CF (R&D …). Described as above.
Test [27] addresses T7, rHuman HGF R/c-MET/Fc Chimera, CF (R&D …). The test is described as above.
Test [28] addresses T1, rHuman EGF R/Fc Chimera, CF (R&D …). In words: MSD Multispot ECL, antigen spotted on plate, Fab in solution; blank spot of the row 300.
The target of test [29] is T2, rHuman Notch-1/Fc Chimera, CF (R&D …). Described as above.
Test [30] addresses T3, rHuman Erythropoietin R/Fc Chimera, CF …. Described as above.
The target in test [31] is T6, rHuman P-Cadherin/Fc Chimera, CF (R&D …). Described as above.
In test [32] the target is T7, rHuman HGF R/c-MET/Fc Chimera, CF (R&D …). The test is described as above.

T7 sequence (P08581 25-932, change not shown): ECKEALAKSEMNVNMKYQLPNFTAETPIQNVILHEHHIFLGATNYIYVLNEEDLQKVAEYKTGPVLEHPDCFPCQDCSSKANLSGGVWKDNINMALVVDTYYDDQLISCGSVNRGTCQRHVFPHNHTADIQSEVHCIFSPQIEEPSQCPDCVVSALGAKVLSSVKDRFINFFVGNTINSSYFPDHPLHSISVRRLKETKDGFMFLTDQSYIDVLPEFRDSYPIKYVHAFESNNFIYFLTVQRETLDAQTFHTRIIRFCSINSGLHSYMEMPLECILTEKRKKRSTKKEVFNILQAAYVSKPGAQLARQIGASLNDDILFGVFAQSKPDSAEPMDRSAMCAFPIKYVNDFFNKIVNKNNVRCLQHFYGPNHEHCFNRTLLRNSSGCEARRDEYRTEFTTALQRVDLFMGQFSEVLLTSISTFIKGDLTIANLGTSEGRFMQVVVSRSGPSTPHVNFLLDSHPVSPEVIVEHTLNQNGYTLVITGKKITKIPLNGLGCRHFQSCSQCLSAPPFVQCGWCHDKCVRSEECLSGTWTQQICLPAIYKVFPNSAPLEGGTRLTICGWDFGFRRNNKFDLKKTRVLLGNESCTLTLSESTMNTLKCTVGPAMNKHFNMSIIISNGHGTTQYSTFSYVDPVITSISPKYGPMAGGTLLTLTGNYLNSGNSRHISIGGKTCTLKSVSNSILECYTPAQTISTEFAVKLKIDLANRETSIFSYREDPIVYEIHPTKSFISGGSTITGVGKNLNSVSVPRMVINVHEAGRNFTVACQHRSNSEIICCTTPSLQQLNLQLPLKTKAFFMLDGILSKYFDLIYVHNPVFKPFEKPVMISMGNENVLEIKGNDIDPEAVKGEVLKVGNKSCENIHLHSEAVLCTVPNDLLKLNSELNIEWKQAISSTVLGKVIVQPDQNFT

B1: Fab VH5-51_IGHD5-18*01>3_IGHJ4*01 G100K/G104T F29A & V3-4_IGLJ1*01 (Fab, V domains shown)
VH: EVQLVQSGAEVKKPGESLKISCKGSGYSATSYWIGWVRQMPGKGLEWMGIIYPGDSDTRYSPSFQGQVTISADKSISTAYLQWSSLKASDTAMYYCARRKYSYTYDYFDYWGQGTLVTVSS
VL: QTVVTQEPSFSVSPGGTVTLTCGLSSGSVSTSYYPSWYQQTPGQAPRTLIYSTNTRSSGVPDRFSGSILGNKAALTITGAQADDESDYYCVLYMGSGISYVFGTGTKVTVL
notes: Fab made in E. coli; VH cloned into Plasmid A (CH1, His6 and Flag tags), lambda VL into Plasmid E (lambda CL); also called KT F29A
For the molecule B1, the ECL signal stood at 887 in test [1]; 601 in test [2]; 586 in [3]; 22900 in test [4]; 621 in test [5]; 502 in test [6]. Also, in test [7], the ECL signal is 985.

B2: Fab VH5-51_IGHD5-18*01>3_IGHJ4*01 G100K/G104T S28A & V3-4_IGLJ1*01 (Fab, V domains shown)
VH: B1 VH with S28A, A29F
VL: B1 VL
notes: Fab made in E. coli; VH cloned into Plasmid A (CH1, His6 and Flag tags), lambda VL into Plasmid E (lambda CL); also called KT S28A
As for B2, the ECL signal in test [8] is 839; in test [9], 432; in test [10], 586; in test [11], 35400; in test [12], 497; in [13], 317. The molecule also registered an ECL signal in [14] of 1040.

B3: Fab VH5-51_IGHD5-18*01>3_IGHJ4*01 G100K/G104T T30A & V3-4_IGLJ1*01 (Fab, V domains shown)
VH: B1 VH with A29F, T30A
VL: B1 VL
notes: Fab made in E. coli; VH cloned into Plasmid A (CH1, His6 and Flag tags), lambda VL into Plasmid E (lambda CL); also called KT T30A
In the case of B3, the ECL signal in test [15] was determined as 853; in test [16] it was 539; in test [17] it was 553; in [18], 24300; in test [19], 698; in [20], 438. Besides, the ECL signal in test [21] is 868.

B4: Fab VH5-51_IGHD5-18*01>3_IGHJ4*01 G100K/G104T G35A & V3-4_IGLJ1*01 (Fab, V domains shown)
VH: B1 VH with A29F, G35A
VL: B1 VL
notes: Fab made in E. coli; VH cloned into Plasmid A (CH1, His6 and Flag tags), lambda VL into Plasmid E (lambda CL); also called KT G35A
For the molecule B4, the ECL signal in [22] stood at 760; in [23], 400; in test [24] it was 506; in [25] it was 53600; in test [26], 305; in test [27] it was 939.

B5: Fab VH5-51_IGHD5-18*01>3_IGHJ4*01 G100K/G104T I34A & V3-4_IGLJ1*01 (Fab, V domains shown)
VH: B1 VH with A29F, I34A
VL: B1 VL
notes: Fab made in E. coli; VH cloned into Plasmid A (CH1, His6 and Flag tags), lambda VL into Plasmid E (lambda CL); also called KT I34A
Turning to B5, the ECL signal in [28] worked out at 883; in test [29], 564; in [30], 505; in [31] it was 349; in test [32], 1080.
